Measured values published in patent publication US20220056125A1 (CEPHALON, published 2022).
Several values for one entry are separate records, joined by “and”; a condition that tells them apart may be missing. Equal entries are not always repeated.

T1: human PAR-2 (human, UniProt P55085 26-397)
T1 sequence: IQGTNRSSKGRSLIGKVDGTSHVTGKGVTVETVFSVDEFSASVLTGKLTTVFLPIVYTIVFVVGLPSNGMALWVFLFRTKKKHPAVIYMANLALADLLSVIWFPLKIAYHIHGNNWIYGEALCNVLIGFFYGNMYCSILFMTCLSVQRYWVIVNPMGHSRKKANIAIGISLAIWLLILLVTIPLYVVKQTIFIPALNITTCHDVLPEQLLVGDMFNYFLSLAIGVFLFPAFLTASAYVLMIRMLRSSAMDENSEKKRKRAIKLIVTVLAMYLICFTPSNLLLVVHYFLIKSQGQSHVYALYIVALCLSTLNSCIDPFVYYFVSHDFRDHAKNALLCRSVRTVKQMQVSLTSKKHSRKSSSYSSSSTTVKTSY


These binders were tested against T1, human PAR-2 (assay: cell-based or functional assay).

Row | PAR-2 β-arrestin cell based assay IC50, 2 µM SLIGKV | PAR-2 β-arrestin cell based assay IC50, 1 µM SLIGKV [nM] | PAR-2 β-arrestin cell based assay IC50 (SLIGKV mark missing) [nM] | Binder
1 | 0.99 nM | – | – | P24E923 (antibody, human IgG4 S228P, kappa, V domains shown) VH: QVQLVQSGAEVKKPGSSVKVSCKASGFSLSSYAISWVRQAPGQGLEWMGVIWGNGNTYYAQKFQGRVTITADESTSTAYMELSSLRSEDTAVYYCARWRGWKDYPFDYWGQGTLVTVSS VL: EIVLTQSPATLSLSPGERATLSCKASQNVYKWLDWYQQKPGQAPRLLIYNAYSLATGIPARFSGSGSGRDFTLTISSLEPEDFAVYYCQQHNSGWTFGGGTKVEIKR
2 | 2.35 nM | – | – | P24E973 (antibody, human IgG4 S228P, kappa, V domains shown) VH: QVQLVQSGAEVKKPGSSVKVSCKASGFSLSSYAISWVRQAPGQGLEWMGVIWGNGNVYYAQKFQGRVTITADESTSTAYMELSSLRSEDTAVYYCARWKGYKDYPFDYWGQGTLVTVSS VL: EIVLTQSPATLSLSPGERATLSCRASQNVYKWLDWYQQKPGQAPRLLIYNAYSRATGIPARFSGSGSGRDFTLTISSLEPEDFAVYYCQQHGHGWTFGGGTKVEIKR
3 | 1.52 nM | – | – | P24E972 (antibody, human IgG4 S228P, kappa, V domains shown) VH: QVQLVQSGAEVKKPGSSVKVSCKASGFSLSSYAISWVRQAPGQGLEWMGVIWGNGNVYYAQKFQGRVTITADESTSTAYMELSSLRSEDTAVYYCARWKGYKDYPFDYWGQGTLVTVSS VL: EIVLTQSPATLSLSPGERATLSCRASQNVYKWLDWYQQKPGQAPRLLIYNAYSRATGIPARFSGSGSGRDFTLTISSLEPEDFAVYYCQQHHHGWTFGGGTKVEIKR
4 | 1.5 nM | – | – | P24E935 (antibody, human IgG4 S228P, kappa, V domains shown) VH: QVQLVQSGAEVKKPGSSVKVSCKASGFSLSSYAISWVRQAPGQGLEWMGVIWGNGNVYYAQKFQGRVTITADESTSTAYMELSSLRSEDTAVYYCARWKGYKDHPFDYWGQGTLVTVSS VL: EIVLTQSPATLSLSPGERATLSCRASQNVYKWLDWYQQKPGQAPRLLIYNAYSRATGIPARFSGSGSGRDFTLTISSLEPEDFAVYYCQQHHHGWTFGGGTKVEIKR
5 | 0.75 nM | – | – | P24E975 (antibody, human IgG4 S228P, kappa, V domains shown) VH: QVQLVQSGAEVKKPGSSVKVSCKASGFSLSSYAISWVRQAPGQGLEWMGVIWGNQNVYYAQKFQGRVTITADESTSTAYMELSSLRSEDTAVYYCARWKGYKDYPFDYWGQGTLVTVSS VL: EIVLTQSPATLSLSPGERATLSCRASQNVYKWLDWYQQKPGQAPRLLIYNAYSRATGIPARFSGSGSGRDFTLTISSLEPEDFAVYYCQQHHHGWTFGGGTKVEIKR
6 | 2.4 nM | – | – | P24E971 (antibody, human IgG4 S228P, kappa, V domains shown) VH: QVQLVQSGAEVKKPGSSVKVSCKASGFSLSSYAISWVRQAPGQGLEWMGVIWGNGNVYYAQKFQGRVTITADESTSTAYMELSSLRSEDTAVYYCARWKGYKDYPFDYWGQGTLVTVSS VL: EIVLTQSPATLSLSPGERATLSCRASQNVYKWLDWYQQKPGQAPRLLIYNAYSRATGIPARFSGSGSGRDFTLTISSLEPEDFAVYYCQQHHSGWTFGGGTKVEIKR
7 | 1.4 nM | – | – | P24E932 (antibody, human IgG4 S228P, kappa, V domains shown) VH: QVQLVQSGAEVKKPGSSVKVSCKASGFSLSSYAISWVRQAPGQGLEWMGVIWGNGNVYYAQKFQGRVTITADESTSTAYMELSSLRSEDTAVYYCARWKGYKDYPFDYWGQGTLVTVSS VL: EIVLTQSPATLSLSPGERATLSCRASQNIYKWLDWYQQKPGQAPRLLIYNAYSLATGIPARFSGSGSGRDFTLTISSLEPEDFAVYYCQQHNSGWTFGGGTKVEIKR
8 | – | 2.47 | – | P24E40 (antibody, human IgG4 S228P, kappa, V domains shown) VH: QVQLVQSGAEVKKPGSSVKVSCKASGFSLNSYGVIWVRQAPGQGLEWMGVIWGNGNTYYNQKFQGRVTITADESTSTAYMELSSLRSEDTAVYYCARWRGYKDYPFDYWGQGTLVTVSS VL: EIVLTQSPATLSLSPGERATLSCKASQNIYKYLDWYQQKPGQAPRLLIYNTNSLATGIPARFSGSGSGRDFTLTISSLEPEDFAVYYCLQHNSGWTFGGGTKVEIKR
9 | 0.79 nM | – | – | P24E924 (antibody, human IgG4 S228P, kappa, V domains shown) VH: QVQLVQSGAEVKKPGSSVKVSCKASGFSLSSYAISWVRQAPGQGLEWMGVIWGNGNTYYAQKFQGRVTITADESTSTAYMELSSLRSEDTAVYYCARWRGWKDYPFDYWGQGTLVTVSS VL: EIVLTQSPATLSLSPGERATLSCRASQNVYKWLDWYQQKPGQAPRLLIYNAYSRATGIPARFSGSGSGRDFTLTISSLEPEDFAVYYCQQHNSGWTFGGGTKVEIKR
10 | 1.8 nM | – | – | P24E936 (antibody, human IgG4 S228P, kappa, V domains shown) VH: QVQLVQSGAEVKKPGSSVKVSCKASGFSLSSYAISWVRQAPGQGLEWMGVIWGNGNVYYAQKFQGRVTITADESTSTAYMELSSLRSEDTAVYYCARWKGYKDHPFDYWGQGTLVTVSS VL: EIVLTQSPATLSLSPGERATLSCRASQNVYKWLDWYQQKPGQAPRLLIYNAYSRATGIPARFSGSGSGRDFTLTISSLEPEDFAVYYCQQHGHGWTFGGGTKVEIKR
11 | 3.64 nM and 1.84 nM | – | – | P24E953 (antibody, human IgG4 S228P, kappa, V domains shown) VH: QVQLVQSGAEVKKPGSSVKVSCKASGFSLSSYAISWVRQAPGQGLEWMGVIWGNQNVYYAQKFQGRVTITADESTSTAYMELSSLRSEDTAVYYCARWKGYKDYPFDYWGQGTLVTVSS VL: EIVLTQSPATLSLSPGERATLSCRASQNVYKWLDWYQQKPGQAPRLLIYDAYSRATGIPARFSGSGSGRDFTLTISSLEPEDFAVYYCQQHGSGWTFGGGTKVEIKR
12 | 1.4 nM | – | – | P24E933 (antibody, human IgG4 S228P, kappa, V domains shown) VH: QVQLVQSGAEVKKPGSSVKVSCKASGFSLSSYAISWVRQAPGQGLEWMGVIWGNGNTYYAQKFQGRVTITADESTSTAYMELSSLRSEDTAVYYCARWKGYKDYPFDYWGQGTLVTVSS VL: EIVLTQSPATLSLSPGERATLSCRASQNVYKWLDWYQQKPGQAPRLLIYNAYSRATGIPARFSGSGSGRDFTLTISSLEPEDFAVYYCQQHGSGWTFGGGTKVEIKR
13 | 1.73 nM | – | – | P24E977 (antibody, human IgG4 S228P, kappa, V domains shown) VH: QVQLVQSGAEVKKPGSSVKVSCKASGFSLSSYAISWVRQAPGQGLEWMGVIWGNQNVYYAQKFQGRVTITADESTSTAYMELSSLRSEDTAVYYCARWKGYKDYPFDYWGQGTLVTVSS VL: EIVLTQSPATLSLSPGERATLSCRASQNVYKWLDWYQQKPGQAPRLLIYDAYSRATGIPARFSGSGSGRDFTLTISSLEPEDFAVYYCQQHHSGWTFGGGTKVEIKR
14 | – | 2.5 | – | P24E22 (antibody, human IgG4 S228P, kappa, V domains shown) VH: QVQLVQSGAEVKKPGSSVKVSCKASGFSLNSYGVIWVRQAPGQGLEWMGVIWGNGNTYYAQKFQGRVTITADESTSTAYMELSSLRSEDTAVYYCARWRGYKDYPFDYWGQGTLVTVSS VL: EIVLTQSPATLSLSPGERATLSCKASQNIYKYLDWYQQKPGQAPRLLIYNTNSLHTGIPARFSGSGSGRDFTLTISSLEPEDFAVYYCLQHNSGWTFGGGTKVEIKR
15 | – | 11.3 | – | P24E9 (antibody, human IgG4 S228P, kappa, V domains shown) VH: QVQLVQSGAEVKKPGSSVKVSCKASGFSLSSYGVIWVRQAPGQGLEWMGVIWGNGNTYYNQKFQGRVTITADESTSTAYMELSSLRSEDTAVYYCARWRGYKDYPFDYWGQGTLVTVSS VL: EIVLTQSPATLSLSPGERATLSCKASQNIYKYLDWYQQKPGQAPRLLIYNTNSLHTGIPARFSGSGSGRDFTLTISSLEPEDFAVYYCLQHNSGWTFGGGTKVEIKR
16 | 2.55 nM and 1.17 nM | – | – | P24E951 (antibody, human IgG4 S228P, kappa, V domains shown) VH: QVQLVQSGAEVKKPGSSVKVSCKASGFSLSSYAISWVRQAPGQGLEWMGVIWGNQNVYYAQKFQGRVTITADESTSTAYMELSSLRSEDTAVYYCARWKGYKDYPFDYWGQGTLVTVSS VL: EIVLTQSPATLSLSPGERATLSCRASQNVYKWLDWYQQKPGQAPRLLIYNAYSRATGIPARFSGSGSGRDFTLTISSLEPEDFAVYYCQQHGSGWTFGGGTKVEIKR
17 | 0.94 nM | – | – | P24E978 (antibody, human IgG4 S228P, kappa, V domains shown) VH: QVQLVQSGAEVKKPGSSVKVSCKASGFSLSSYAISWVRQAPGQGLEWMGVIWGNQNVYYAQKFQGRVTITADESTSTAYMELSSLRSEDTAVYYCARWKGYKDYPFDYWGQGTLVTVSS VL: EIVLTQSPATLSLSPGERATLSCRASQNVYKWLDWYQQKPGQAPRLLIYDAYSRATGIPARFSGSGSGRDFTLTISSLEPEDFAVYYCQQHHHGWTFGGGTKVEIKR
18 | 1.5 nM | – | – | P24E934 (antibody, human IgG4 S228P, kappa, V domains shown) VH: QVQLVQSGAEVKKPGSSVKVSCKASGFSLSSYAISWVRQAPGQGLEWMGVIWGNGNVYYAQKFQGRVTITADESTSTAYMELSSLRSEDTAVYYCARWKGYKDHPFDYWGQGTLVTVSS VL: EIVLTQSPATLSLSPGERATLSCRASQNVYKWLDWYQQKPGQAPRLLIYNAYSRATGIPARFSGSGSGRDFTLTISSLEPEDFAVYYCQQHHSGWTFGGGTKVEIKR
19 | 2 nM | – | – | P24E931 (antibody, human IgG4 S228P, kappa, V domains shown) VH: QVQLVQSGAEVKKPGSSVKVSCKASGFSLSSYAISWVRQAPGQGLEWMGVIWGNGNVYYAQKFQGRVTITADESTSTAYMELSSLRSEDTAVYYCARWKGYKDYPFDYWGQGTLVTVSS VL: EIVLTQSPATLSLSPGERATLSCKASQNVYKWLDWYQQKPGQAPRLLIYNAYSLATGIPARFSGSGSGRDFTLTISSLEPEDFAVYYCQQHGSGWTFGGGTKVEIKR
20 | 1.4 nM | – | 1.7 | P24E930 (antibody, human IgG4 S228P, kappa, V domains shown) VH: QVQLVQSGAEVKKPGSSVKVSCKASGFSLSSYAISWVRQAPGQGLEWMGVIWGNGNVYYAQKFQGRVTITADESTSTAYMELSSLRSEDTAVYYCARWKGYKDYPFDYWGQGTLVTVSS VL: EIVLTQSPATLSLSPGERATLSCRASQNVYKWLDWYQQKPGQAPRLLIYNAYSRATGIPARFSGSGSGRDFTLTISSLEPEDFAVYYCQQHGSGWTFGGGTKVEIKR
